Results published in patent US20210163591A1 (TEL HASHOMER MEDICAL RESEARCH INFRASTRUCTURE AND SERVICES, published 2021).

Experiments:
[1] = target: T1, human GABRA2 (SEQ ID NO: 21) (human, UniProt P47869 29-251); experiment: Biacore SPR, antibody immobilized on CM5 chip, GABRA2 as analyte, single-cycle kinetics
T1 construct: The Biacore method says only 'Diluted GABRA2'; I took it to be the same antigen; also called GABRA2 protein; human GABRA2 antigen
T1 sequence: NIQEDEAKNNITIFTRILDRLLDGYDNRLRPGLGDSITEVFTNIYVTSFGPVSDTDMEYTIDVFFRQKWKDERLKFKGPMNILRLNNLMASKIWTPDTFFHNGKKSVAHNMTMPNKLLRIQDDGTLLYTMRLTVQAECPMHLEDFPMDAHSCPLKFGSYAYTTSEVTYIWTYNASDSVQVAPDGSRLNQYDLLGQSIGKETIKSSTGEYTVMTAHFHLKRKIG
Description: (§1) Biacore analysis—Antibody was immobilized onto a CM5 sensor chip (Cat No. BR-1005-30) under 25° C. while HBS-EP was used as the running buffer. The sensor chip surface of flow cells 1 and 2 were activated by freshly mixed 50 mmol/1 N-Hydroxysuccinimide (NHS) and 200 mmol/I 1-ethyl-3-(3-dimethylaminopropyl) carbodiimide hydrochloride (EDC) for 200s ([…]). Afterwards, the antibody diluted in 10 mml/l NaAC (pH 4.5) was injected into flow cell 2 to achieve conjugation of 300 Response Unit respectively, while flow cell 1 was set as blank. After the amine coupling reaction, the remaining active coupling sites on chip surface were blocked with 200s injection of 1 mol/l ethanolamine hydrochloride. […] Diluted GABRA2 was injected over the surface as association phase, followed by injecting running buffer as dissociation phase. Data was processed using the Biacore 8K Evaluation software version 1.1. Flow cell 1 and blank injection of buffer in each cycle were used as double reference for Response Unit subtraction.

[2] = target: T1, human GABRA2 (SEQ ID NO: 21); experiment: Biacore SPR, antibody immobilized on CM5 chip, GABRA2 as analyte, single-dose kinetics
Description: as §1

Kd [1]: 388 pM
koff [1]: 5.42e-05 s⁻¹
kon [1]: 140000 M⁻¹ s⁻¹
Kd [2]: 251 pM
koff [2]: 1.58e-05 s⁻¹
kon [2]: 62800 M⁻¹ s⁻¹
B1: antibody U6882DH130_13, purified from hybridoma 10C5B9 (antibody, V domains shown)
VH: EVQLQQSGAELVKPGASVKLSCTASGFNIKDTYMYWVKQRPEQGLEWIGRIDPANGNTKYDPKFQGKATITADTSSNTAYLQLSSLTSEDTAVYYCASNYYGSFDYWGQGTTLTVSS
VL: DIQMTQTTSSLSASLGDRVTISCRASQDISNYLNWYQQKPDGTVKLLIYYTSRLHSGVPSRFSGSGSGTDYSLTISNLEQEDIATYFCQQGNTLPPTFGGGTKLEIK
notes: also called U6882DH130_13 Antibody; Antibody from clone10C5B9
